Experimental data published in patent US20250277196A1, “EPSPS MUTANTS AND METHOD OF ITS USES” (CROPEDIT BIOTECHNOLOGY INC., priority 2021, published 2025).

System: E. coli lacking EPSPS
Experiment: Resistance test of wheat EPSPS mutant and comparison with wild type (FIG. 4)
Assay type: cell-based
Conditions: 0.2 mM glyphosate
From the text: The gene was synthesized according to the V403A mutant sequence information (SEQ ID NO:32) of the EPSPS gene on chromosome 7 of the wheat A genome and inserted into the vector pKED2 to obtain the wheat (Triticum vulgare) EPSPS mutant expression vector TaVA containing the V403A mutation. The A403 site of TaVA was mutated back to V by PCR, and a TaWt vector expressing the EPSPS wild-type gene on chromosome 7 of wheat A genome was obtained.
a) PCR system: According to the primer and template mixed PCR system corresponding to the target vector in the above table, the forward primer was 1.25 μl, the reverse primer was 1.25 μl, the template plasmid was 2 μl, the Q5 PCR master mix was 12.5 μl, and ddH2O was […].
b) PCR reaction conditions were as follows: the annealing temperature was set according to the annealing temperature corresponding to the target carrier in the above table.
c) Took out 5 μl of the obtained PCR product and added it to the loading buffer for agarose gel electrophoresis. A band with a size of about 4.5 kb was considered successful.
d) Used NEB's KLD enzyme mixture to remove the template and then connected the PCR product. The connection system was 5 μl KLD buffer, 1 μl KLD MIX, 1 μl PCR product, and ddH2O 3 μl. After ligating at room temperature for 5 min, transformed it into E. coli.
e) The ligation product was transformed into Dh5a competent E. coli lacking EPSPS. […]

B1: TaVA (protein)
DNA: MAGAEEVVLQPIREISGAVQLPGSKSLSNRILLLSALSEGTTVVDNLLNSEDVHYMLEALEALGLSVEADKVAKRAVVVGCGGRFPVEKDAKEEVKLFLGNAGTAMRPLTAAVVAAGGNATYVLDGVPRMRERPIGDLVVGLQQLGADVDCFLGTNCPPVRINGKGGLPGGKVKLSGSISSQYLSSLLMAAPLALEDVEIEIIDKLISVPYVEMTLKLMEHFGVTAEHSDSWDRFYIKGGQKYKSPGNAYVEGDASSASYFLAGAAITGGTVTVEGCGTTSLQGDVKFAEVLEMMGAKVTWTDTSVTVTGPPRQPFGRKHLKAVDVNMNKMPDAAMTLAVVALFADGPTAIRDVASWRVKETERMVAIRTELTKLGATVEEGPDYCIITPPEKLNITAIDTYDDHRMAMAFSLAACAEVPVTIRDPGCTRKTFPNYFDVLSTFVKN
modifications: This sequence is synthesized in lab.
growth state compared with TaWt: significantly higher than that of TaWt
